Sequences and labels used below:
B1: Flag-tagged wild-type A2 domain of coagulation factor VIII (pED-Flag-A2) [human] / calreticulin [not stated (endogenous in COS-1 or HEK293T cells)] (parent)
chain 1: KTWVHYIAAEEEDWDYAPLVLAPDDRSYKSQYLNNGPQRIGRKYKKVRFMAYTDETFKTREAIQHESGILGPLLYGEVGDTLLIIFKNQASRPYNIYPHGITDVRPLYSRRLPKGVKHLKDFPILPGEIFKYKWTVTVEDGPTKSDPRCLTRYYSSFVNMERDLASGLIGPLLICYKESVDQRGNQIMSDKRNVILFSVFDENRSWYLTENIQRFLPNPAGVQLEDPEFQASNIMHSINGYVFDSLQLSVCLHEVAYWYILSIGAQTDFLSVFFSGYTFKHKMVYEDTLTLFPFSGETVFMSMENPGLWILGCHNSDFRNRGMTALLKVSSC
chain 2: EPAVYFKEQFLDGDGWTSRWIESKHKSDFGKFVLSSGKFYGDEEKDKGLQTSQDARFYALSASFEPFSNKGQTLVVQFTVKHEQNIDCGGGYVKLFPNSLDQTDMHGDSEYNIMFGPDICGPGTKKVHVIFNYKGKNVLINKDIRCKDDEFTHLYTLIVRPDNTYEVKIDNSQVESGSLEDDWDFLPPKKIKDPDASKPEDWDERAKIDDPTDSKPEDWDKPEHIPDPDAKKPEDWDEEMDGEWEPPVIQNPEYKGEWKPRQIDNPDYKGTWIHPEIDNPEYSPDPSIYAYDNFGVLGLDLWQVKSGTIFDNFLITNDEAYAEEFGNETWGVTKAAEKQMKDKQDEEQRLKEEEEDKKRKEEEEAEDKEDDEDKDEDEEDEEDKEEDEEEDVPGQAKDEL

In this assay the parent is B1. The assay can be described thus: co-immunoprecipitation (anti-Flag IP, immunoblot densitometry). Conditions: with calreticulin [not stated (endogenous in COS-1 or HEK293T cells)]; 36 h after transfection; n = 3; parent: 1; read off a plot.
In the case of chain 1 N203D, the ratio to parent was 0.92. As for chain 1 D201V, the ratio to parent was determined as 1.1.

For the variant chain 1 D201H, the ratio to parent worked out at 2.2. As to chain 1 S205T, the ratio to parent amounted to 2.3.

Values taken from PMC5361195.
